In US20210107996A1 (PROMAB BIOTECHNOLOGIES, published 2021) one finds Kd data, which are given here for 1 molecule.

The target in the assay is T1, recombinant PLAP extracellular domain protein (Sino Biological) (human, UniProt P05187 23-506).
T1 construct: Bought protein; also called purified recombinant PLAP protein; PLAP antigen
In words: BLI (Blitz ForteBio); antibody captured on anti-mouse-capture biosensors, PLAP antigen in solution. How it is done:
The binding of PLAP antibody with recombinant PLAP extracellular domain protein from Sino Biological was performed using Blitz ForteBio system as described. In brief, anti-mouse-capture (AMC) biosensors were soaked in kinetics buffer (PBS, 0.1% Tween, 0.05% BSA) for 10 min and then with mouse anti-PLAP antibody at 0.1 mg/mL in same buffer for 30 min. After washing, biosensors were used to bind the PLAP antigen at different concentrations. The Kd was detected with Blitz system software.
For orientation: Biolayer interferometry detects binding as a change in optical thickness at a sensor tip.

T1 sequence (P05187 23-506): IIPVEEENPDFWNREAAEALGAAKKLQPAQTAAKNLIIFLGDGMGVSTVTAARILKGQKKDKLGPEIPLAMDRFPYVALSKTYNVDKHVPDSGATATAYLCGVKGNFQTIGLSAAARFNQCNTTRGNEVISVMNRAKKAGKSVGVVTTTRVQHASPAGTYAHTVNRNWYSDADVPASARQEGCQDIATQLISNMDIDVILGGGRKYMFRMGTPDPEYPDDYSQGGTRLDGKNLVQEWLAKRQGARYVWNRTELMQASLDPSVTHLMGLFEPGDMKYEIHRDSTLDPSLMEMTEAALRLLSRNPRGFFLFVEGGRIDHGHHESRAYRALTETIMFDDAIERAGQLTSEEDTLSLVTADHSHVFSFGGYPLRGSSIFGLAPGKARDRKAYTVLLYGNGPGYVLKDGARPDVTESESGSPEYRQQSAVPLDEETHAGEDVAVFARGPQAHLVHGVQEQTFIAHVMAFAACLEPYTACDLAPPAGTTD

B1: mouse monoclonal PLAP antibody (clone H17E2) (antibody, V domains shown)
VH: QVQLKESGPGLVAPSQSLSITCTVSGFSLTSYGVSWVRQPPRKGLEWLGVIWEDGSTNYHSALISRLSINKDNSKSQVFLKLNSLQTDDTATYYCAKPHYGSSYVGAMEYWGQGTSVTVSS
VL: DIQMTQSPASLTASVGETVTITCRASENIYSYVAWYQQKQGKSPQFLVYNAKSLAEGVPSRFSGSGSGTQFSLKINSLQPEDFGNYYCQHHYVSPWTFGGGTKLEIR
notes: Bought whole mouse monoclonal antibody (Thermo Fisher / Ximbio); also called PLAP antibody H17E2; mouse anti-PLAP antibody
The term Kd denotes the equilibrium constant for the complex coming apart. As to B1, the Kd was found to be 3.2 nM.
